One block for each substance: values may come before it.
What was measured:
[1] = molecular target: T1, HLA-A*0201 (Homo sapiens, UniProt P04439, D140Y/D185E/D98H/E176V/E277Q/G131W/G231S/I119V/I121R/I166T/I218V/L300P/L318F/N151K/N90K/P208A/P217A/Q86G/Q94H/R138H/R169H/T345S); assay: Affinity of the peptide to T2 cell line: HLA-A2 labelling by FACS, relative to HIV pol 589-597; assay type: binding; settings: for binding affinity to HLA-A*0201 compared with the other peptides tested (in words): Examples 2, 7, 8, 9; for binding to HLA-A*0201 as % of maximum HIV pol 589-597 binding activity: Example 8
T1 construct: the human tumoral cell T2 which expresses the HLA-A*0201 molecule; endogenous in cells; host or cells: T2 cells (human, TAP1/2 negative)
Description: The experimental protocol is similar to the one that was validated for peptides presented by the HLA-A*0201 (Tourdot et al., A general strategy to enhance immunogenicity of low-affinity HLA-A2.1-associated peptides: implication in the identification of cryptic tumor epitopes. Eur J Immunol. 2000 December; 30(12):3411-21). Affinity measurement of the peptides is achieved with the human tumoral cell T2 which expresses the HLA-A*0201 molecule, but which is TAP1/2 negative and incapable of presenting endogenous peptides.
T2 cells (2.10^5 cells per well) are incubated with decreasing concentrations of peptides from 100 μM to 1.5625 μM in a AIMV medium supplemented with 100 ng/μl of human β2m at 37° C. for 16 hours. Cells are then washed two times and marked with the anti-HLA-A2 antibody coupled to PE (clone BB7.2, BD Pharmagen).
The analysis is achieved by FACS (Guava Easy Cyte).
A2. Solubilisation of Peptides
Each peptide is solubilized by taking into account the amino acid composition. […] Other peptides are resuspended in water or PBS pH7.4.
The experimental protocol, materials and methods correspond to those outlined in Example 2, with the only difference that the above mentioned (poly)peptides were used.

[2] = tested on: T cell responses (IFNγ-producing splenocytes); assay: ELISPOT-IFNγ assay on splenocytes of vaccinated HLA-A2 humanized mice; assay type: in vivo, HLA-A2 (CB6F1-Tg(HLA-A*0201/H2-Kb)A*0201) mice; settings: 100 μg vacc-pAg + 150 μg T13L + IFA s.c. d0 and d14; splenocytes d21 restimulated with vacc-pAg 10 μM
Description: Briefly, HLA-A2 humanized mice (HLA-A2 (CB6F1-Tg(HLA-A*0201/H2-Kb)A*0201) were assigned randomly (based on mouse sex and age) to experimental groups, wherein each group was immunized with a specific vaccination peptide (vacc-pAg) combined to a common helper peptide (h-pAg T13L; sequence: […]; SEQ ID NO: 860; Bhasin M, Singh H, Raghava GP (2003) MHCBN: a comprehensive database of MHC binding and non-binding peptides. Bioinformatics 19: 665-666) (as outlined in Table 5 below). The vacc-pAg were compared in couples (group 1 vs. group 2, group 1 vs. group 3; group 1 vs. group 4; group 5 vs. group 6; group 7 vs. group 8; group 9 vs. group 10). Thereby, both native and optimized versions of a single peptide were compared in each wave.
The peptides were provided as follows: • vacc-pAg: BIRC5-H, BIRC5-B1, BIRC5-B2, BIRC5-B3, FOXM1-H2, FOXM1-B2, EZH2-H2, EZH2-B2, 1L13RA2-H and IL13RA2-B; all produced and provided at a 4 mg/ml (4 mM) concentration; • h-pAg: T13L; Eurogentec batch 1713334 re-suspended in pure distilled water at a 10 mg/mL concentration
The animals were immunized on day 0 (d0) with a prime injection, and on d14 with a boost injection. Each mouse was injected s.c. at tail base with 100 μL of an oil-based emulsion that contained: • 100 μg of vacc-pAg (25 μL of 4 mg/mL stock per mouse); • 150 μg of h-pAg (15 μL of 10 mg/mL stock per mouse); • 10 μL of PBS to reach a total volume of 50 μL (per mouse); • Incomplete Freund's Adjuvant (IFA) added at 1:1 (v:v) ratio (50 μL per mouse).
A separate emulsion was prepared for each vacc-pAg, as follows: IFA reagent was added to the vacc-pAg/h-pAg/PBS mixture in a 15 mL tube and mixed on vortex for repeated cycles of 1 min until forming a thick emulsion.
Seven days after the boost injection (i.e. on d21), the animals were euthanized and the spleen was harvested. Splenocytes were prepared by mechanical disruption of the organ followed by 70 μm-filtering and Ficoll density gradient purification.
The splenocytes were immediately used in an ELISPOT-IFNγ assay (Table 6). Experimental conditions were repeated in triplicates, using 2*10^5 total splenocytes per well, and were cultured in presence of vacc-pAg (10 μM), lonomycin (0.1 μM) plus PMA (1 μM) or medium-only to assess for their capacity to secrete IFNγ. The commercial ELISPOT-IFNγ kit (Diaclone Kit Mujrine IFNγ ELISpot) was used following the manufacturer's instructions, and the assay was performed after about 19 h of incubation.
Spots were counted on a CTL ELISpot reader. Data plotting and statistical analysis were performed with the Prism-5 software (GraphPad Software Inc.).
The data were then normalized as a number of specific spots (the average counts obtained in the ‘medium only’ condition being subtracted) per 50*10^3 total T cells.
The individual average values (obtained from the triplicates) were next used to plot the group average values. As the functional capacity of T cells might vary from individual to individual, the data were also expressed as the percentage of the ionomycin plus PMA response per individual (see FIG. 8).

[3] = tested on: T-cells (IFN-secreting splenocytes); assay: Immunogenicity and cross-reactivity, IFN ELISpot on splenocytes of immunized HHD DR3 mice; assay type: in vivo; settings: for immunogenicity: immune response after challenge with the vaccination peptide or the human corresponding peptide (IFN ELISpot): 100 μg peptide + 150 μg helper peptide (DR3) + IFA s.c. days 0 and 14, splenocytes day 21; for immune response against the corresponding human peptide (cross-reactivity): same immunisation
Method: Concanavalin A (ConA) was used as a positive control.
The antigenic peptide of the invention BIRC5-B1 (SEQ ID NO: 32) and the corresponding human peptide BIRC5-H (SEQ ID NO: 593) were tested in distinct groups of male and female HHD DR3 mice expressing human HLA-A2 and HLA-DR3 MHC and lacking the murine H-2 class I and class II MHCs. Groups of 5 mice (male and female) were subcutaneously injected on days 0 and 14 with 100 μg of BIRC5-B1 or BIRC5-H, 150 μg of helper peptide (DR3) and IFA. On day 21, the mice were euthanized and splenocytes were prepared and stimulated in vitro with BIRC5-B1 or the human peptide BIRC5-H to assess their capacity to secrete IFN—as assessed by ELISpot. ConA was used as a positive control.
The antigenic peptide of the invention FOXM1-B2 (SEQ ID NO: 220) and the corresponding human peptide FOXM1-H2 (SEQ ID NO: 674) were tested in distinct groups of male and female HHD DR3 mice expressing human HLA-A2 and HLA-DR3 MHC and lacking the murine H-2 class I and class II MHCs. Groups of 5 mice (male and female) were subcutaneously injected on days 0 and 14 with 100 μg of FOXM1-B2 or FOXM1-H2, 150 μg of helper peptide (DR3) and IFA. On day 21, the mice were euthanized and splenocytes were prepared and stimulated in vitro with FOXM1-B2 or the human corresponding peptide FOXM1-H2 to assess their capacity to secrete IFN—as assessed by ELISpot. ConA was used as a positive control

[4] = tested on: T-cells (IFN-secreting splenocytes); assay: Immunogenicity and cross-reactivity, confirmation in HHD DR1 mice; assay type: in vivo; settings: HHD DR3 and HHD DR1 mice, summary of Examples 4 to 6

Concentration of peptide that induces 20% of HLA-A2 expression ([1]; Example 2, Table 4): 2.7 µM
Substance: FLDSLGFSL [TYMS B2]

Concentration of peptide that induces 20% of HLA-A2 expression ([1]; Example 2, Table 4): 13.3 µM
Substance: FMVEDETVL (listed as Homo sapiens) [EZH2-H, reference compound]

Concentration of peptide that induces 20% of HLA-A2 expression ([1]; Example 2, Table 4): 8.3 µM
Substance: AVFRVLIPV [EZH2-B2]
T cell responses in the ELISPOT-IFNγ assay compared to the respective human reference epitope [2]: improved T cell responses

Concentration of peptide that induces 20% of HLA-A2 expression ([1]; Example 2, Table 4): 2.9 µM | Concentration of peptide that induces 20% of HLA-A2 expression ([1]; Example 8, Table 8): 2.9 µM | binding affinity to HLA-A*0201 compared with the other peptides tested (in words) [1]: considerably higher binding affinity
Substance: FLPFGFILV [IL13RA2-B]
T cell responses in the ELISPOT-IFNγ assay compared to the respective human reference epitope [2]: improved T cell responses

Concentration of peptide that induces 20% of HLA-A2 expression ([1]; Example 2, Table 4): 14.7 µM
Substance: YTLGEFLYI [BIRC5-B2]
T cell responses in the ELISPOT-IFNγ assay compared to the respective human reference epitope [2]: improved T cell responses

Concentration of peptide that induces 20% of HLA-A2 expression ([1]; Example 2, Table 4): 12.6 µM
Substance: LMDLSTTPL (listed as Homo sapiens) [FOXM1-H2, reference compound]
immunogenicity: immune response after challenge with the vaccination peptide or the human corresponding peptide (IFN ELISpot) [3]: does not induce immune response

Concentration of peptide that induces 20% of HLA-A2 expression ([1]; Example 2, Table 4): 3.6 µM
Substance: LLLSAALSV [CHI3L1 B]

Concentration of peptide that induces 20% of HLA-A2 expression ([1]; Example 2, Table 4): 37.6 µM
Substance: RVSSYLVPI (listed as Homo sapiens) [FOXM1-H, reference compound]

Concentration of peptide that induces 20% of HLA-A2 expression ([1]; Example 2, Table 4): 53.0 µM | Concentration of peptide that induces 20% of HLA-A2 expression ([1]; Example 9, Table 9): 95.9 µM
Substance: LTLGEFLKL (listed as Homo sapiens) [BIRC5-H, reference compound]
immunogenicity: immune response after challenge with the vaccination peptide or the human corresponding peptide (IFN ELISpot) [3]: does not induce any immune response

Second part, the substance before the results:

Substance: LMDLSTTEV [FOXM1-B2]
Concentration of peptide that induces 20% of HLA-A2 expression ([1]; Example 2, Table 4): 6.7 µM | T cell responses in the ELISPOT-IFNγ assay compared to the respective human reference epitope [2]: improved T cell responses | immunogenicity: immune response after challenge with the vaccination peptide or the human corresponding peptide (IFN ELISpot) [3]: strongly immunogenic | immune response against the corresponding human peptide (cross-reactivity) [3]: able to drive an effective immune response against human corresponding peptide | immune responses induced [4]: induced strong immune responses

Substance: RLSSYLVEI [FOXM1-B]
Concentration of peptide that induces 20% of HLA-A2 expression ([1]; Example 2, Table 4): 46.7 µM

Substance: YLLSAALTI [CHI3L1 B3]
Concentration of peptide that induces 20% of HLA-A2 expression ([1]; Example 2, Table 4): 8.6 µM

Substance: ILDEAYVRV [EGFR-B]
Concentration of peptide that induces 20% of HLA-A2 expression ([1]; Example 2, Table 4): 3.1 µM

Substance: SMFRVLIGT (listed as Homo sapiens) [EZH2-H2, reference compound]
Concentration of peptide that induces 20% of HLA-A2 expression ([1]; Example 2, Table 4): 39.2 µM

Substance: LMLGEFLKL [2M, reference compound]
Concentration of peptide that induces 20% of HLA-A2 expression ([1]; Example 9, Table 9): 2.87 µM

Substance: SMEELLWFV [TYMS B]
Concentration of peptide that induces 20% of HLA-A2 expression ([1]; Example 2, Table 4): 1.1 µM

Substance: GLLGEFLQI [BIRC5-B3]
Concentration of peptide that induces 20% of HLA-A2 expression ([1]; Example 2, Table 4): 22.9 µM | T cell responses in the ELISPOT-IFNγ assay compared to the respective human reference epitope [2]: improved T cell responses

Substance: FLPFGFILPV [IL13RA2-L]
Concentration of peptide that induces 20% of HLA-A2 expression ([1]; Example 2, Table 4): 3.2 µM | Concentration of peptide that induces 20% of HLA-A2 expression ([1]; Example 8, Table 8): 3.2 µM | binding affinity to HLA-A*0201 compared with the other peptides tested (in words) [1]: considerably higher binding affinity | binding to HLA-A*0201 as % of maximum HIV pol 589-597 binding activity ([1]; at 6.25 μM): 43% | binding to HLA-A*0201 as % of maximum HIV pol 589-597 binding activity ([1]; at 25 μM): 96% | binding to HLA-A*0201 as % of maximum HIV pol 589-597 binding activity ([1]; at 100 μM): 69% | immunogenicity: immune response after challenge with the vaccination peptide or the human corresponding peptide (IFN ELISpot) [3]: strongly immunogenic | immune response against the corresponding human peptide (cross-reactivity) [3]: able to drive an effective immune response against the corresponding human peptide | immune responses induced [4]: induced strong immune responses

Substance: FMLGEFLKL [BIRC5-B1]
Concentration of peptide that induces 20% of HLA-A2 expression ([1]; Example 2, Table 4): 2.7 µM | Concentration of peptide that induces 20% of HLA-A2 expression ([1]; Example 9, Table 9): 1.24 µM | binding affinity to HLA-A*0201 compared with the other peptides tested (in words) [1]: considerably higher in vitro binding affinity | T cell responses in the ELISPOT-IFNγ assay compared to the respective human reference epitope [2]: improved T cell responses | immunogenicity: immune response after challenge with the vaccination peptide or the human corresponding peptide (IFN ELISpot) [3]: strongly immunogenic | immune response against the corresponding human peptide (cross-reactivity) [3]: able to drive an effective immune response against human corresponding peptide | immune responses induced [4]: induced strong immune responses

Substance: VLEELLWFI (listed as Homo sapiens) [TYMS H, reference compound]
Concentration of peptide that induces 20% of HLA-A2 expression ([1]; Example 2, Table 4): 4.1 µM

Substance: FLVEDETVI [EZH2-B]
Concentration of peptide that induces 20% of HLA-A2 expression ([1]; Example 2, Table 4): 8.8 µM

Substance: FLDSLGFST (listed as Homo sapiens) [TYMS H2, reference compound]
Concentration of peptide that induces 20% of HLA-A2 expression ([1]; Example 2, Table 4): 9.5 µM

Substance: WLPFGFILI (listed as Homo sapiens) [IL13RA2-H, reference compound]
immunogenicity: immune response after challenge with the vaccination peptide or the human corresponding peptide (IFN ELISpot) [3]: does not induce an immune response

Substance: 1A9V: comparative peptide (Eguchi et al., 2006): SEQ ID NO: 691 with tryptophan 1 substituted by alanine, isoleucine 9 by valine (ALPFGFILV; comparative peptide) [reference compound]
Concentration of peptide that induces 20% of HLA-A2 expression ([1]; Example 8, Table 8): 36.5 µM | binding affinity to HLA-A*0201 compared with the other peptides tested (in words) [1]: lowest affinity of the peptides tested

Reference: patent US12016910B2, “Antigenic peptides for prevention and treatment of cancer” (ENTEROME S.A., priority 2018, dated 2024)
